# Reference: patent US10683335B2, “Freeze-dried preparation containing high-purity PTH and method for producing same” (ASAHI KASEI PHARMA CORPORATION, priority 2011, dated 2020)
# Columns and labels:
# [1] = Ozone exposure forced degradation of human PTH (1-34) solution (Test Example 2); type: physicochemical; conditions: solution with sucrose and sodium chloride, stirred; ozone approximately 0.08 ppm, about 20 hours
# Experimental: A quantity of 4.00 g of sucrose and 0.20 g of sodium chloride were weighed out and dissolved by adding water for injection to make a placebo solution. […] An environment having an ozone concentration of approximately 0.08 ppm by ozone concentration meter was produced using an ozone generator and a blower (initial wind speed approximately 7.2 m/s) to circulate the ozone and make the concentration uniform in a tray having a 40 cm long×90 cm wide×100 cm high glass door. Approximately 15 mL of the reaction stock solution was dispensed into each 20 mL vial. […] Furthermore, the purity was confirmed in accordance with the test conditions of Test Example 1. The degraded solution was freeze dried, and a solution dissolved by a suitable amount of water for injection was taken as a forced-degradation solution. The analogs were fractionated under the following conditions using this solution.
# [2] = HPLC area percentage method: amount of PTH analogs in freeze-dried preparations and bulk drug (Test Example 1); type: physicochemical; conditions: human PTH (1-34) bulk drug lot, HPLC peak area %
# Experimental: The area percentage method using HPLC is a simple method for assessing the purity of a freeze-dried preparation containing PTH peptide and the amount of analogs. A solution obtained by weighing out 0.25 g of benzalkonium chloride and bringing it to 50 mL by adding 50 mM sulfate buffer (pH 2.3) serves as the loading buffer. Each preparation of the examples and comparative examples is dissolved by 1 mL of physiological saline solution, and a 9:1 mixture of this solution and the loading buffer serves as the sample solution. A quantity of 100 μL of sample solution is tested by HPLC under the following conditions. Furthermore, benzalkonium chloride was used to prevent the peptide that is the target of measurement from attaching to the instrument and the like.
# Detector: Ultraviolet absorptiometer (measurement wavelength: 214 nm)
# Column: Stainless steel tube 150 mm long having an inner diameter of 4.6 mm packed with 3.5 μm of octadecylsilylated silica gel
# Column temperature: Constant temperature near 40° C.
# Mobile phase: Mobile phase A: Dissolve 28.4 g of anhydrous sodium sulfate in 900 mL of water and bring to 1000 mL by adding water after adding phosphoric acid to adjust the pH to 2.3. Add 100 mL of acetonitrile to this 900 mL of liquid.
# Mobile phase B: Dissolve 28.4 g of anhydrous sodium sulfate in 900 mL of water and bring to 1000 mL by adding water after adding phosphoric acid to adjust the pH to 2.3 Add 500 mL of acetonitrile to 500 mL of this liquid.
# Mobile phase feed: Concentration gradient control is provided by varying the mixture ratio of mobile phase A and mobile phase B as follows.
# Sample temperature: Constant temperature near 5° C.
# Detection time: 45 minutes after injection of the sample solution. However, this is from the back of the solvent peak.
# Calculation method: The amount of each PTH analog and the total amount thereof was determined by performing liquid chromatography under the above conditions, measuring each peak area by automatic integration, and performing calculation using Formulas 1 and 2. Furthermore, the total peak area was the sum total of the area of all peaks detected by performing liquid chromatography under the above conditions. […] Amount of each PTH analog (%)=(peak area of each analog/total peak area)×100 Formula 1: Total amount of PTH analogs (%)=(sum total of peak areas of each analog/total peak area)×100 Formula 2:
molecule,measurement,setting,value
CC[C@H](C)[C@H](NC(=O)[C@H](CCC(=O)O)NC(=O)[C@H](CO)NC(=O)[C@@H](NC(=O)[C@@H](N)CO)C(C)C)C(=O)N[C@@H](CCC(N)=O)C(=O)N[C@@H](CC(C)C)C(=O)N[C@@H](CCSC)C(=O)N[C@@H](Cc1cnc[nH]1)C(=O)N[C@@H](CC(N)=O)C(=O)N[C@@H](CC(C)C)C(=O)NCC(=O)N[C@@H](CCCCN)C(=O)N[C@@H](Cc1cnc[nH]1)C(=O)N[C@@H](CC(C)C)C(=O)N[C@@H](CC(N)=O)C(=O)N[C@@H](CO)C(=O)N[C@@H](CCSC)C(=O)N[C@@H](CCC(=O)O)C(=O)N[C@@H](CCCN=C(N)N)C(=O)N[C@H](C(=O)N[C@@H](CCC(=O)O)C(=O)N[C@@H](Cc1c[nH]c2ccccc12)C(=O)N[C@@H](CC(C)C)C(=O)N[C@@H](CCCN=C(N)N)C(=O)N[C@@H](CCCCN)C(=O)N[C@@H](CCCCN)C(=O)N[C@@H](CC(C)C)C(=O)N[C@@H](CCC(N)=O)C(=O)N[C@@H](CC(=O)O)C(=O)N[C@H](C(=O)N[C@@H](Cc1cnc[nH]1)C(=O)N[C@@H](CC(N)=O)C(=O)N[C@@H](Cc1ccccc1)C(=O)O)C(C)C)C(C)C [Human PTH (1-34)],Purity after exposure to ozone atmosphere,[1],approximately 20%
same,Total amount of human PTH (1-34) analogs after exposure to ozone atmosphere,[1],80%
human PTH (1-34) [lot A],Amount of (6) Human PTH (1-34)-Met 8 [O],[2]; listed as A,0.08%
human PTH (1-34) [lot B],Amount of (6) Human PTH (1-34)-Met 8 [O],[2]; listed as B,0.07%
same,Amount of (7) Human PTH (1-34)-Met 18 [O],[2]; listed as B,0.09%
human PTH (1-34) [lot D],Amount of (6) Human PTH (1-34)-Met 8 [O],[2]; listed as D,0.05%
same,Amount of (7) Human PTH (1-34)-Met 18 [O],[2]; listed as D,0.06%
human PTH (1-34) [lot E],Amount of (6) Human PTH (1-34)-Met 8 [O],[2]; listed as E,0.05%
same,Amount of (7) Human PTH (1-34)-Met 18 [O],[2]; listed as E,0.07%
human PTH (1-34) [lot F],Amount of (6) Human PTH (1-34)-Met 8 [O],[2]; listed as F,0.14%
same,Amount of (7) Human PTH (1-34)-Met 18 [O],[2]; listed as F,0.21%
human PTH (1-34) [lot G],Amount of (6) Human PTH (1-34)-Met 8 [O],[2]; listed as G,0.17%
same,Amount of (7) Human PTH (1-34)-Met 18 [O],[2]; listed as G,0.23%
human PTH (1-34) [lot H],Amount of (6) Human PTH (1-34)-Met 8 [O],[2]; listed as H,0.06%
same,Amount of (7) Human PTH (1-34)-Met 18 [O],[2]; listed as H,0.09%
